Source: paper doi:10.1101/2025.10.25.684504

How the values were obtained:
Test in all cases: cryo-EM structure
[1] = target: Actinomyces procaprae Csm6 (ApCsm6), wild type (Actinomyces procaprae)
[2] = target: ApCsm6 H369A (Actinomyces procaprae)
[3] = target: ApCsm6 R723A (Actinomyces procaprae)

Q: “Actinomyces procaprae Csm6 (ApCsm6), wild type (enzyme)” was tested. Which stoichiometry N [1] did it give?
A: The stoichiometry N was 4.

Q: For ApCsm6 H369A (enzyme), which stoichiometry N [2] is on record?
A: The stoichiometry N was 4.

Q: For ApCsm6 R723A (enzyme), which stoichiometry N [3] is on record?
A: The stoichiometry N was 4.
